{"source": "patent US20230002480A1", "assay_in_all_cases": "cell-based or functional assay", "key": {"[1]": {"molecular_target": "HIV-1 Env of pseudovirus 0260.v5.c36 (HIV-1)"}, "[2]": {"molecular_target": "HIV-1 Env of pseudovirus X1632_S2_B10 (HIV-1)"}, "[3]": {"molecular_target": "HIV-1 Env of pseudovirus C3347.c11 (HIV-1)"}, "[4]": {"molecular_target": "HIV-1 Env of pseudovirus 3365.v2.c2 (HIV-1)"}, "[5]": {"molecular_target": "HIV-1 Env of pseudovirus 6480.v4.c25 (HIV-1)"}, "[6]": {"molecular_target": "HIV-1 Env of pseudovirus BJOX028000.10.3 (HIV-1)"}, "[7]": {"molecular_target": "HIV-1 Env of pseudovirus 231965.c01 (HIV-1)"}, "[8]": {"molecular_target": "HIV-1 Env of pseudovirus 6540.v4.c1 (HIV-1)"}, "[9]": {"molecular_target": "HIV-1 Env of pseudovirus 6952.v1.c20 (HIV-1)"}, "[10]": {"molecular_target": "HIV-1 Env of pseudovirus 3817.v2.c59 (HIV-1)"}, "[11]": {"molecular_target": "HIV-1 Env of pseudovirus CNE5 (HIV-1)"}, "[12]": {"molecular_target": "HIV-1 Env of pseudovirus X2088_c9 (HIV-1)"}, "[13]": {"molecular_target": "HIV-1 Env of pseudovirus 235-47 (HIV-1)"}, "[14]": {"molecular_target": "HIV-1 Env of pseudovirus X2131_C1_B5 (HIV-1)"}, "[15]": {"molecular_target": "HIV-1 Env of pseudovirus 6041.v3.c23 (HIV-1)"}, "[16]": {"molecular_target": "HIV-1 Env of pseudovirus BJOX025000.01.1 (HIV-1)"}, "[17]": {"molecular_target": "HIV-1 Env of pseudovirus A07412M1.vrc12 (HIV-1)"}, "[18]": {"molecular_target": "HIV-1 Env of pseudovirus X1254_c3 (HIV-1)"}}, "data": [{"substance": "N49P18.1 (antibody)", "values": [{"measurement": "IC50", "setting": "[1]", "result": 16.2, "unit": "µg/mL"}, {"measurement": "IC80", "setting": "[1]", "result": 47.8, "unit": "µg/mL"}, {"measurement": "MPI", "setting": "[1]", "result": 81}, {"measurement": "IC50", "setting": "[2]", "result": "> 50", "unit": "µg/mL"}, {"measurement": "IC80", "setting": "[2]", "result": "> 50", "unit": "µg/mL"}, {"measurement": "MPI", "setting": "[2]", "result": 19}, {"measurement": "IC50", "setting": "[3]", "result": 4.2, "unit": "µg/mL"}, {"measurement": "IC80", "setting": "[3]", "result": 14.3, "unit": "µg/mL"}, {"measurement": "MPI", "setting": "[3]", "result": 99}, {"measurement": "IC50", "setting": "[4]", "result": 4.72, "unit": "µg/mL"}, {"measurement": "IC80", "setting": "[4]", "result": 14.3, "unit": "µg/mL"}, {"measurement": "MPI", "setting": "[4]", "result": 99}, {"measurement": "IC50", "setting": "[5]", "result": 2.97, "unit": "µg/mL"}, {"measurement": "IC80", "setting": "[5]", "result": 17.3, "unit": "µg/mL"}, {"measurement": "MPI", "setting": "[5]", "result": 99}, {"measurement": "IC50", "setting": "[6]", "result": 34, "unit": "µg/mL"}, {"measurement": "IC80", "setting": "[6]", "result": "> 50", "unit": "µg/mL"}, {"measurement": "MPI", "setting": "[6]", "result": 64}, {"measurement": "IC50", "setting": "[7]", "result": "> 50", "unit": "µg/mL"}, {"measurement": "IC80", "setting": "[7]", "result": "> 50", "unit": "µg/mL"}, {"measurement": "MPI", "setting": "[7]", "result": 31}, {"measurement": "IC50", "setting": "[8]", "result": "> 50", "unit": "µg/mL"}, {"measurement": "IC80", "setting": "[8]", "result": "> 50", "unit": "µg/mL"}, {"measurement": "MPI", "setting": "[8]", "result": 35}, {"measurement": "IC50", "setting": "[9]", "result": "> 50", "unit": "µg/mL"}, {"measurement": "IC80", "setting": "[9]", "result": "> 50", "unit": "µg/mL"}, {"measurement": "MPI", "setting": "[9]", "result": 30}, {"measurement": "IC50", "setting": "[10]", "result": "> 50", "unit": "µg/mL"}, {"measurement": "IC80", "setting": "[10]", "result": "> 50", "unit": "µg/mL"}, {"measurement": "MPI", "setting": "[10]", "result": 34}, {"measurement": "IC50", "setting": "[11]", "result": 19.5, "unit": "µg/mL"}, {"measurement": "IC80", "setting": "[11]", "result": "> 50", "unit": "µg/mL"}, {"measurement": "MPI", "setting": "[11]", "result": 72}, {"measurement": "IC50", "setting": "[12]", "result": 9.08, "unit": "µg/mL"}, {"measurement": "IC80", "setting": "[12]", "result": 34.9, "unit": "µg/mL"}, {"measurement": "MPI", "setting": "[12]", "result": 88}, {"measurement": "IC50", "setting": "[13]", "result": 23, "unit": "µg/mL"}, {"measurement": "IC80", "setting": "[13]", "result": "> 50", "unit": "µg/mL"}, {"measurement": "MPI", "setting": "[13]", "result": 66}, {"measurement": "IC50", "setting": "[14]", "result": 30.4, "unit": "µg/mL"}, {"measurement": "IC80", "setting": "[14]", "result": "> 50", "unit": "µg/mL"}, {"measurement": "MPI", "setting": "[14]", "result": 75}, {"measurement": "IC50", "setting": "[15]", "result": 3.05, "unit": "µg/mL"}, {"measurement": "IC80", "setting": "[15]", "result": 12.2, "unit": "µg/mL"}, {"measurement": "MPI", "setting": "[15]", "result": 96}, {"measurement": "IC50", "setting": "[16]", "result": 7.67, "unit": "µg/mL"}, {"measurement": "IC80", "setting": "[16]", "result": 39.1, "unit": "µg/mL"}, {"measurement": "MPI", "setting": "[16]", "result": 85}, {"measurement": "IC50", "setting": "[17]", "result": 41.3, "unit": "µg/mL"}, {"measurement": "IC80", "setting": "[17]", "result": "> 50", "unit": "µg/mL"}, {"measurement": "MPI", "setting": "[17]", "result": 54}, {"measurement": "IC50", "setting": "[18]", "result": 24.8, "unit": "µg/mL"}, {"measurement": "IC80", "setting": "[18]", "result": "> 50", "unit": "µg/mL"}, {"measurement": "MPI", "setting": "[18]", "result": 61}]}]}
